This note sets out measurements from US20250136677A1 (ZOETIS SERVICES, published 2025).

What is called Kd is the free concentration of one partner at which half of the binding sites on the other are occupied at equilibrium, for simple one-to-one binding. What is called koff is a measure of how fast the partners let go of each other. Lower therefore signals a long-lived complex. Usually kon stands for the second-order rate constant of association. Low readings indicate slow association, high ones fast association.

Experiment [1] addresses T1, mutant feline IL-31 15H05 protein (Feline_IL31_15H05_mutant) (feline).
T1 construct: also called feline 15H05 mutant; 15H05 IL-31 mutant
T1 chain: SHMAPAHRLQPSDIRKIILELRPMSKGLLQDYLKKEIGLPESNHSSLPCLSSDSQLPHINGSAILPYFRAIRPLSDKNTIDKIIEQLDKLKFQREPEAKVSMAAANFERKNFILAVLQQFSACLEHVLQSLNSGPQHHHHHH
Put plainly: indirect ELISA, IL-31 protein coated. On the procedure:
(§1) For the indirect ELISA method, antibody binding to wildtype and feline IL-31 15H05 mutant proteins was assessed. All nine canine monoclonal antibodies (ZIL1, ZIL8, ZIL8, ZIL11, ZIL69, ZIL94, ZIL154, ZIL159, and ZIL171) were capable of binding to wildtype feline IL-31 and binding was impacted by mutations in the mAb 15H05 epitope region confirming the correct binding phenotype determined during the initial screening used to identify them. In comparison, the 11E12 antibody bound to the wild-type feline IL-31 and its binding was not impacted by the mutations in the 15H05 epitope region as evidenced by the data in FIG. 4. To confirm binding, biacore analysis was performed using canine, feline, equine, human, feline 15H05 mutant, and feline 11E12 mutant IL-31 proteins as surfaces and a single test concentration of antibody. Similar to ELISA observations, all antibodies tested bound to wildtype feline IL-31. In agreement with the data described above in this section, mouse antibodies 11E12 and 15H05 both bound to canine and feline IL-31 surfaces. Three additional antibodies where shown to have this dual binding property, ZIL69 (partial canine binding), ZIL94, and ZIL159. From this group of nine fully canine antibodies, only ZIL1 and ZIL9 cross-reacted with equine IL-31. Of note, antibody 15H05 was the only one of all assayed herein that bound to canine, feline, and equine IL-31 indicating some level of epitope conservation across the three species. In contrast, none of the antibodies described herein bound to human IL-31. Additional biacore surfaces were used to verify ELISA observations showing differential binding of antibodies to wildtype feline IL-31 and two proteins with mutations in the 15H05 (15H05 mutant) or 11E12 (11E12 mutant) epitopes. […] In agreement with the ELISA results, all fully canine antibodies were impacted by the 15H05 mutation with the exception of ZIL94, ZIL154, and ZIL171 (partially affected). Differing results can be attributed to differences in the two assay methodologies.
A general note: In an ELISA, binding on a coated surface is turned into a signal by an enzyme label.

For experiment [2], the target named is T2, wildtype feline IL-31 protein (Feline_IL31_wildtype) (feline).
T2 construct: Full length feline IL-31 with C-terminal His tag, secreted from ExpiCHO cells; also called fIL-31
T2 chain: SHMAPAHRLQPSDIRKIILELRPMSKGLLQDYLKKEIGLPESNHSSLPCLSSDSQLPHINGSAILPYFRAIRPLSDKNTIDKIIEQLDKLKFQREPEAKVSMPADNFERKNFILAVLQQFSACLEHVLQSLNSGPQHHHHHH
In words: indirect ELISA, IL-31 protein coated. On the procedure:
as §1

The target of experiment [3] is T2, wildtype feline IL-31 protein …. In words: SPR (Biacore), IL-31 on chip, 1:1 fit. The essentials: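 IL-31 was amine-coupled (NHS/EDC) to the chip at 5 μg/mL and quenched with ethanolamine, and candidate mAbs were flowed over it as analytes. Binding curves were fitted to a 1:1 model.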
For orientation: Surface plasmon resonance follows binding to a sensor surface in real time, without labels.

In experiment [4] the target is T1, mutant feline IL-31 15H05 protein …. In words: SPR (Biacore), IL-31 protein as surface capture; Biacore KD of Table 1, mutant IL-31 as surface capture; weak binding, about 78 times weaker than on wildtype feline. The protocol: The affinity with which candidate mAbs bind canine and feline IL-31 was determined using surface plasmon resonance (SPR) on a Biacore system (Biocore Life Sciences (GE Healthcare), Uppsala, Sweden). To avoid affinity differences associated with differential surface preparation that can occur when immobilizing antibodies to surfaces; a strategy was employed where IL-31 was directly conjugated to the surface. Immobilization was obtained by amine coupling 5 μg/mL IL-31 using N-hydroxysuccinimide (NHS)/1-Ethyl-3-(3-dimethylaminopropyl) carbodiimide (EDC) chemistry. Chips were quenched with ethanolamine and the affinity with which all candidate mAbs bound to the immobilized IL-31 was evaluated. All curves were fit to a 1:1 model. […] Results for affinity measurements are described herein.
Table 1 below describes the results for biacore analysis using multiple species of IL-31 protein as a surface capture.

The target in experiment [5] is T2, wildtype feline IL-31 protein …. In words: cell-based or functional assay.

B1: mouse anti IL-31 antibody 15H05 (antibody, mouse IgG1, kappa)
heavy: QVQLQQSAAELARPGASVKMSCKTSGYTFTSYTIHWIKQRPGQGLEWIGNINPTSGYTENNQRFKDKTTLTVDRSSNTAYLQLHSLTSEDSAVYFCARWGFKYDGEWSFDVWGAGTTVTVSSKTTPPSVYPLAPGSAAQTNSMVTLGCLVKGYFPEPVTVTWNSGSLSSGVHTFPAVLESDLYTLSSSVTVPSSPRPSETVTCNVAHPASSTKVDKKIVPRDCGCKPCICTVPEVSSVFIFPPKPKDVLTITLTPKVTCVVVDISKDDPEVQFSWFVDDVEVHTAQTQPREEQFNSTFRSVSELPIMHQDWLNGKEFKCRVNSAAFPAPIEKTISKTKGRPKAPQVYTIPPPKEQMAKDKVSLTCMITDFFPEDITVEWQWNGQPAENYKNTQPIMNTNGSYFVYSKLNVQKSNWEAGNTFTCSVLHEGLHNHHTEKSLSHSPGK
light: DIQMNQSPSSLSASLGDTITVTCRASQGISIWLSWYQQKPGNIPKVLINKASNLHIGVPPRFSGSGSGTHFTLTITSLQPEDIATYYCLQSQTYPLTFGGGTKLEINADAAPTVSIFPPSSEQLTSGGASVVCFLNNFYPKDINVKWKIDGSERQNGVLNSWTDQDSKDSTYSMSSTLTLTKDEYERHNSYTCEATHKTSTSPIVKSFNRNEC
notes: Mouse hybridoma antibody, IgG1 kappa; also called Mu-15H05; MU-15H05
B1: in experiment [1], the “ELISA OD” value was 0.05 OD. For the same molecule, the “ELISA OD” value in experiment [2] amounted to 1.94 OD. In experiment [3], this molecule gave a Kd of 0.348 nM, a koff of 1.69e-05 s⁻¹ and a kon of 48400 M⁻¹ s⁻¹. In experiment [4], this molecule gave a Kd of 23.9 nM. Also, the “Inhibition of IL-31 induced pSTAT3 IC50 (µg/ml), Feline IL-31 on Feline FCWF-4 cells” value in experiment [5] stood at 6 µg/ml.
